Experiments:
[1] = Hepatotoxicity and nephrotoxicity markers (AST, ALT, BUN) in COLO205 tumor-bearing mice; conditions: final day of observation
Protocol: As a comparison group, a group (oxaliplatin administration group) was set by administering 33 μL of oxaliplatin into the tail vein at a dose of 5 mg/mL 3 times every other week. […] Each group contained 6 mice, and observation of general condition and measurement of the body weight and tumor volume were performed until the end of the observation period. In the Figure, the vertical axis indicates mean tumor volume of each group, and the horizontal axis indicates the number of days elapsed since administration of each medicament. […] On the final day of observation, the mice were autopsied, and the blood was collected. The collected blood was analyzed by a dry chemistry analyzer (SPOTCHEM D-02, manufactured by ARKRAY, Inc.) by measuring aspartate aminotransferase (AST), alanine aminotransferase (ALT), and blood urea nitrogen (BUN) in plasma by using SPOTCHEM D Total-A2 (manufactured by ARKRAY, Inc.), and hepatotoxicity and nephrotoxicity were evaluated.

[2] = tested on: tumor derived from COLO205 cells; assay: Accumulation in tumor, PET imaging in COLO205 tumor-bearing mice; format: in vivo, mouse
Protocol: COLO205 cells of EGFR high expression human colorectal cancer-derived cell line purchased from ATCC were suspended in DMEM medium and administered subcutaneously to the flanks of 5-week-old female BALB/c nu/nu (Charles River Laboratories Japan, Inc.) at 5×10^6 cells to prepare tumor-bearing mice. The tumor volume was allowed to grow to about 100 to 250 mm^3, and the radioconjugate produced as described in Example 7 was administered at a dose of about 6 MBq/mouse (each n=3) into the tail vein. After 72 hr and 120 hr from the administration, images were taken using a small animal PET imaging device under conditions similar to those in Evaluation 2.
The arrow in the image indicates a tumor derived from COLO205 cells used for tumor-bearing. When VOI was set for the tumor and muscle (femoral muscle) in each imaged mouse and the SUV (Standard Uptake Value) was calculated, the value was 3.18±0.72 for tumor and 0.48±0.02 for muscle at 72 hr after administration and 4.38±0.96 for tumor and 0.48±0.05 for muscle at 120 hr after administration. Using the values, the radioactivity accumulation ratio of tumor to muscle was calculated. As a result, the ratio was 6.67±1.52 at 72 hr after administration and 9.19±2.02 at 120 hr after administration, and a higher level of radioactivity was accumulated in the tumor as compared with other organs and EGFR positive tumor could be depicted.

[3] = tested on: SW48 cells and COLO205 cells; assay: Apoptosis induction, Caspase-Glo 3/7 Assay; format: cell-based, human; conditions: 72 hours, both cells
Protocol: In addition, unlabeled panitumumab was added to an antibody concentration the same as that of the group at each radioactivity concentration, and the cells were cultured. After 72 hours from the sample addition, an apoptosis assay kit (Caspase-Glo (registered trademark) 3/7 Assay, manufactured by Promega) was added, and Caspase-3/7 activity was detected using a microplate reader.

[4] = tested on: COLO205 cells, HCT-116 cells, SW48 cells, MIAPaCa-2 cells, NCI-H358 cells; assay: Cytotoxic effect on cultured cells, overall statement; format: cell-based, human; conditions: 120 hours; up to maximum concentration added (antibody concentration 156 nM)
Protocol: In addition, unlabeled panitumumab was added to an antibody concentration the same as that of the sample at each radioactivity concentration, and the cells were cultured. After 120 hours from the sample addition, CellTiter-Glo (registered trademark) 2.0 Cell Viability Assay (manufactured by Promega) was added to the medium, chemiluminescence was detected using a microplate reader (SpectraMax i3x, manufactured by Molecular Devices, LLC), and the number of viable cells was calculated. The ratio of the number of viable cells under conditions where no antibody was added to the calculated number of viable cells was taken, and the cytotoxic effect was evaluated. Furthermore, the obtained results were fitted by a […] regression method using GraphPad Prism 7 (manufactured by GraphPad Software), and EC50 was calculated.

**Q.** Which “hepatotoxicity and nephrotoxicity (AST, ALT, BUN in plasma)” value [1] does the source give for `O=C1[O][Pt]2([NH][C@@H]3CCCC[C@H]3[NH]2)[O]C1=O` [oxaliplatin, reference compound] here?
**A.** no hepatotoxicity or nephrotoxicity was confirmed

**Q.** Which “SUV (Standard Uptake Value), muscle (femoral muscle)” value ([2]; 72 hr after administration) does the source give for “Example 7: Complex with panitumumab using 89Zr-labeled DOTAGA-DBCO” here?
**A.** 0.48±0.02

**Q.** And the “SUV (Standard Uptake Value), muscle (femoral muscle)” value ([2]; 120 hr after administration)?
**A.** 0.48±0.05

**Q.** What about the “SUV (Standard Uptake Value), tumor” value ([2]; 120 hr after administration) of the same compound?
**A.** 4.38±0.96

**Q.** What about the “SUV (Standard Uptake Value), tumor” value ([2]; about 6 MBq/mouse tail vein, 72 hr after administration) of the same compound?
**A.** 3.18±0.72

**Q.** With “panitumumab [unlabeled panitumumab, reference compound]” as the compound, how does the “apoptosis induction (Caspase-3/7 activity)” value [3] read?
**A.** apoptosis induction was not confirmed

**Q.** And the cytotoxic effect [4]?
**A.** no cytotoxic effect was confirmed
